Experimental data: publication PMC4585773, “The C-terminus hot spot region helps in the fibril formation of bacteriophage-associated hyaluronate lyase (HylP2)” (Scientific Reports, 2015)

Key:
[1] = biological target: the molecule itself; assay: SEC; Superdex 200 HR 10/300, 25 °C, pH 5, 0.3 ml/min; step: the native enzyme to high molecular weight aggregates (void volume), compared with pH 7; no seeds
[2] = biological target: the molecule itself; assay: thioflavin T fluorescence kinetics; pH 5, 5 uM protein, 10 uM ThT, emission at 480 nm against time, seeded with preformed HylP2 fibrils; step: the native enzyme to fibrils

B1: bacteriophage-associated hyaluronate lyase HylP2 (enzyme, Streptococcus pyogenes bacteriophage, UniProt Q54699 1-337, looked up)
chain: MSENIPLRVQFKRMKAAEWARSDVILLESEIGFETDTGFARAGDGHNRFSDLGYISPLDYNLLTNKPNIDGLATKVETAQKLQQKADKETVYTKAESKQELDKKLNLKGGVMTGQLKFKPAATVAYSSSTGGAVNIDLSSTRGAGVVVYSDNDTSDGPLMSLRTGKETFNQSALFVDYKGTTNAVNIAMRHATTPNFSSALNITSGNENGSAMQLRGSEKALGTLKITHENPSIGADYDKNAARYPLILSKRQNGAGTAAQGIYINSTSGTTGKLLRIRNLSDDKFYVKSDGGFYAKETSQIDGNLKLKDPTANDHAATKAYVDKAISELKKLILKK
notes: hyaluronate lyase HylP2 encoded by a Streptococcus pyogenes bacteriophage, full length, residues 1-337; also called HylP2_(1-337); phage hyaluronate lyase; source: E. coli BL21 (DE3), purified
B1: binds [1].

B2: HylP_(M179V,M181V) (enzyme, Streptococcus pyogenes bacteriophage, UniProt P15316 1-371, looked up)
chain: MTENIPLRVQFKRMSADEWARSDVILLEGEIGFETDTGFAKFGDGQNTFSKLKYLTGPKGPKGDTGLQGKTGGTGPRGPAGKPGTTDYDQLQNKPDLGAFAQKEETNSKITKLESSKADKSAVYSKAESKIELDKKLSLTGGIVTGQLQFKPNKSGIKPSSSVGGAINIDMSKSEGAAVVVYTNKDTTDGPLMILRSDKDTFDQSAQFVDYSGKTNAVNIVMRQPSAPNFSSALNITSANEGGSAMQIRGVEKALGTLKITHENPNVEAKYDENAAALSIDIVKKQKGGKGTAAQGIYINSTSGTAGKMLRIRNKNEDKFYVGPDGGFHSGANSTVAGNLTVKDPTSGKHAATKDYVDEKIAELKKLILKK
notes: hyaluronate lyase HylP of a Streptococcus pyogenes bacteriophage, residues 1-371, with M179V and M181V; made from the vector construct of full length HylP; Generated from the vector construct of m2; also called hot spot double mutant of HylP; source: E. coli BL21 (DE3), purified
B2: binds [2].
